Results reported in the Immune Epitope Database (IEDB).

How the values were obtained:
[1] = target: HLA-A*02:06; assay: IEDB peptide-MHC binding, purified MHC/competitive/radioactivity; filed as Kd, often an IC50 or EC50 that approximates it; ≥ and ≤ were set here for values at or beyond the usual limits of such assays
[2] = target: HLA-A*02:17; assay: as above
[3] = target: HLA-A*02:01; assay: as above
[4] = target: HLA-A*03:01; assay: IEDB peptide-MHC binding, purified MHC/competitive/fluorescence; filed as Kd, often an IC50 or EC50 that approximates it; ≥ and ≤ were set here for values at or beyond the usual limits of such assays
[5] = target: HLA-B*07:02; assay: IEDB peptide-MHC binding, purified MHC/competitive/radioactivity; filed as Kd, often an IC50 or EC50 that approximates it; ≥ and ≤ were set here for values at or beyond the usual limits of such assays
[6] = target: HLA-B*51:01; assay: as above
[7] = target: HLA-B*54:01; assay: as above
[8] = target: HLA-B*35:01; assay: as above
[9] = target: HLA-B*53:01; assay: as above
[10] = target: HLA-B*15:01; assay: as above
[11] = target: HLA-B*08:01; assay: as above; details: source organism: Dengue virus 1 Brazil/97-11/1997
[12] = target: HLA-A*69:01; assay: IEDB peptide-MHC binding, purified MHC/direct/fluorescence; filed as Kd, often an IC50 or EC50 that approximates it; ≥ and ≤ were set here for values at or beyond the usual limits of such assays
[13] = target: HLA-B*08:01; assay: as above
[14] = target: HLA-A*01:01; assay: as above
[15] = target: HLA-B*46:01; assay: as above
[16] = target: HLA-B*57:01; assay: as above; details: source organism: Mycobacterium tuberculosis str. Haarlem
[17] = target: HLA-B*44:02; assay: as above
[18] = target: HLA-B*40:01; assay: as above
[19] = target: HLA-B*18:01; assay: as above; details: source organism: Mycobacterium tuberculosis str. Haarlem
[20] = target: HLA-A*11:01; assay: as above
[21] = target: HLA-A*31:01; assay: as above
[22] = target: HLA-B*27:05; assay: as above
[23] = target: HLA-A*03:01; assay: as above
[24] = target: HLA-B*15:01; assay: as above
[25] = target: HLA-A*01:01; assay: IEDB peptide-MHC binding, purified MHC/competitive/radioactivity; filed as Kd, often an IC50 or EC50 that approximates it; ≥ and ≤ were set here for values at or beyond the usual limits of such assays; details: source organism: Dengue virus 2 Jamaica/1409/1983
[26] = target: HLA-A*68:02; assay: as above
[27] = target: HLA-A*02:03; assay: as above
[28] = target: HLA-A*24:02; assay: as above; details: source organism: Dengue virus 3 Sri Lanka/1266/2000
[29] = target: HLA-A*23:01; assay: as above; details: source organism: Dengue virus 3 Sri Lanka/1266/2000
[30] = target: HLA-B*07:02; assay: IEDB peptide-MHC binding, purified MHC/direct/fluorescence; filed as Kd, often an IC50 or EC50 that approximates it; ≥ and ≤ were set here for values at or beyond the usual limits of such assays; details: source organism: Escherichia coli O157:H7
[31] = target: HLA-A*26:01; assay: as above; details: source organism: Escherichia coli O157:H7
[32] = target: HLA-B*58:01; assay: as above; details: source organism: Escherichia coli O157:H7
[33] = target: HLA-A*02:01; assay: as above
[34] = target: HLA-A*02:12; assay: as above; details: source organism: Rift Valley fever virus
[35] = source organism: Dengue virus 4 Philippines/H241/1956
[36] = source organism: SARS coronavirus Tor2
[37] = source organism: Dengue virus 1 Brazil/97-11/1997
[38] = source organism: Dengue virus 1 Singapore/S275/1990
[39] = source organism: Mycobacterium tuberculosis str. Haarlem
[40] = source organism: Lassa virus Josiah
[41] = source organism: Dengue virus 2 Jamaica/1409/1983
[42] = source organism: Vaccinia virus WR
[43] = source organism: Dengue virus 3 Sri Lanka/1266/2000
[44] = source organism: Dengue virus 3 Martinique/1243/1999
[45] = source organism: Dengue virus 3 China/80-2/1980
[46] = source organism: Mammarenavirus guanaritoense
[47] = source organism: Mammarenavirus lassaense
[48] = source organism: Escherichia coli O157:H7
[49] = source organism: Escherichia coli
[50] = source organism: Rift Valley fever virus
[51] = source organism: Dengue virus 2 Puerto Rico/PR159-S1/1969

FLDLPLPWAA
Kd [1, 35]: 59.3 nM | Kd [2, 35]: 499 nM | Kd [3, 35]: 4.19 nM

LLANILSEH
Kd ([4]; source organism: Vibrio cholerae 2740-80): 525 nM

SPLFLIVAAL
Kd [5, 36]: 248 nM | Kd [6, 36]: 970 nM | Kd [7, 36]: 949 nM | Kd [8, 36]: 3330 nM | Kd [9, 36]: 1040 nM

LLMLVTPSM
Kd [10, 37]: 2.26 nM | Kd [11]: 1080 nM | Kd [2, 38]: 24.3 nM | Kd [3, 38]: 7.86 nM

IMANRAQVL
Kd [12, 39]: ≥ 20000 nM | Kd [13, 39]: 332 nM | Kd [14, 39]: ≥ 20000 nM | Kd [15, 39]: ≥ 20000 nM | Kd [16]: ≥ 20000 nM | Kd [17, 39]: ≥ 20000 nM | Kd [18, 39]: ≥ 20000 nM | Kd [19]: ≥ 20000 nM | Kd [20, 39]: ≥ 20000 nM | Kd [21, 39]: ≥ 20000 nM | Kd [22, 39]: ≥ 20000 nM | Kd [23, 39]: ≥ 20000 nM

KMARAGLGH
Kd ([4]; source organism: Escherichia coli O157:H7 str. EDL933): 25.1 nM

GLVECNNHY
Kd [24, 40]: 182 nM | Kd [15, 40]: ≥ 20000 nM

LTAALLLLV
Kd [25]: ≥ 42900 nM | Kd [1, 41]: 3.73 nM | Kd [2, 41]: ≥ 41700 nM | Kd [3, 41]: 5760 nM | Kd [26, 41]: 5.36 nM

KPEVRIPVDL
Kd [5, 42]: 235 nM | Kd [6, 42]: ≥ 69600 nM | Kd [7, 42]: 14300 nM | Kd [8, 42]: ≥ 69900 nM | Kd [9, 42]: ≥ 42400 nM

SIILEFFLIV
Kd [1, 41]: 43.7 nM | Kd [2, 41]: 4020 nM | Kd [3, 41]: 29.9 nM

HMIAGVFFT
Kd [2, 43]: 1400 nM | Kd [3, 43]: 9.01 nM

LLLLGLMILL
Kd [1, 44]: 21.5 nM | Kd [2, 45]: 94.9 nM | Kd [3, 45]: 11.7 nM

NPLVITTSV
Kd [5, 46]: 1330 nM | Kd [6, 46]: 381 nM | Kd [7, 46]: 79.8 nM | Kd [8, 46]: 5530 nM | Kd [9, 46]: 14200 nM

LLLLTLLATV
Kd [27, 41]: 1.37 nM | Kd [1, 41]: 23.8 nM | Kd [2, 41]: 54.4 nM | Kd [3, 41]: 64.6 nM

FPYVMGDVEL
Kd [5, 47]: 930 nM | Kd [6, 47]: 304 nM | Kd [7, 47]: 487 nM | Kd [8, 47]: 11.1 nM | Kd [9, 47]: 46.9 nM

TPVEIVVDM
Kd [5, 47]: 16700 nM | Kd [6, 47]: 9820 nM | Kd [7, 47]: ≥ 78100 nM | Kd [8, 47]: 4.6 nM | Kd [9, 47]: 158 nM

MMILPAALAF
Kd [10, 43]: 2.41 nM | Kd [28]: 916 nM | Kd [8, 43]: 1490 nM | Kd [29]: 119 nM | Kd [9, 43]: 6480 nM

VILAGPMPV
Kd [2, 41]: 1360 nM

YLEFEALGFL
Kd [2, 45]: 45.3 nM | Kd [3, 45]: 77.1 nM

ALALFDLLK
Kd ([4]; source organism: Escherichia coli O139:H28 str. E24377A): 56.7 nM

ILLKATLLAV
Kd [27, 37]: 2.21 nM | Kd [1, 37]: 18.1 nM | Kd [2, 38]: 318 nM | Kd [3, 38]: 2.24 nM

VMAVGLVSI
Kd [27, 44]: 1.11 nM | Kd [2, 45]: 3200 nM

DPDHYKDYAF
Kd [5, 42]: ≥ 69600 nM | Kd [6, 42]: ≥ 69600 nM | Kd [7, 42]: 17300 nM | Kd [8, 42]: 894 nM | Kd [9, 42]: 3440 nM

AQRPAKYSY
Kd [12, 48]: ≥ 20000 nM | Kd [24, 49]: 133 nM | Kd [13, 48]: ≥ 20000 nM | Kd [30]: ≥ 20000 nM | Kd [14, 48]: ≥ 20000 nM | Kd [15, 48]: ≥ 20000 nM | Kd [17, 48]: ≥ 20000 nM | Kd [18, 48]: ≥ 20000 nM | Kd [20, 48]: ≥ 20000 nM | Kd [31]: ≥ 20000 nM | Kd [32]: ≥ 20000 nM | Kd [21, 49]: 622 nM | Kd [33, 48]: ≥ 20000 nM | Kd [22, 48]: ≥ 20000 nM | Kd [23, 48]: ≥ 20000 nM

YLKEACNHA
Kd [12, 50]: 473 nM | Kd [24, 50]: 652 nM | Kd [34]: 52 nM | Kd [33, 50]: 243 nM

APNAKEEIL
Kd [5, 36]: 71.2 nM | Kd [6, 36]: 2650 nM | Kd [7, 36]: ≥ 23300 nM | Kd [8, 36]: 19200 nM | Kd [9, 36]: 18500 nM

QVMLLVLCAV
Kd [27, 44]: 604 nM | Kd [1, 44]: 11.8 nM | Kd [2, 45]: ≥ 35100 nM | Kd [3, 45]: 146 nM

TLYAVATTFI
Kd ([27]; source organism: Dengue virus 2 Peru/IQT2913/1996): 13.7 nM | Kd [2, 51]: 1300 nM | Kd [3, 51]: 86.3 nM

FPAIFSAEVL
Kd [5, 47]: 1380 nM | Kd [6, 47]: 9910 nM | Kd [7, 47]: 523 nM | Kd [8, 47]: 55.7 nM | Kd [9, 47]: 332 nM

ILIGFLVLWI
Kd [2, 35]: 2990 nM | Kd [3, 35]: 97.1 nM

KLTDWDFVV
Kd [1, 35]: 2.33 nM | Kd [2, 35]: 744 nM | Kd ([3]; source organism: dengue virus type 4): 61 nM

MIAGVFFTFV
Kd [27, 44]: ≤ 0.1 nM | Kd [1, 44]: 1.02 nM | Kd [2, 43]: 83 nM | Kd [3, 43]: 12.6 nM | Kd [26, 44]: 2.85 nM

TSMAMTCIAV
Kd [1, 35]: 9.2 nM | Kd [2, 35]: 62.5 nM | Kd [3, 35]: 12.3 nM | Kd [26, 35]: 1.66 nM

TAAAWYLWEV
Kd [1, 41]: 1.28 nM | Kd [2, 41]: 1020 nM | Kd [3, 41]: 10.3 nM | Kd [26, 41]: 4.09 nM
